From PMC11211324 (Cell Discovery, 2024) come the findings set out here.

Changes are numbered by the printed parent chain.

For test [1], the target named is T1, purified KRAS (Homo sapiens (assumed), isoform 2B …, UniProt P01116-2, biotin (chemically labelled with EZ-link-Sulfo-NHS-biotin) in the BLI assay only).
Test [2] deals with T1, purified KRAS. The test can be described thus: BLI; biotinylated KRAS immobilised on streptavidin biosensors, KDCs (TKD, TKDm) in solution in a 2-fold dilution series; Octet Red96, 30 °C, PBST (1x PBS, 0.1% Tween 20); 100 s association, 200 s dissociation; 1:1 model, global fit. The settings on record: both partners purified. (In general: Biolayer interferometry detects binding as a change in optical thickness at a sensor tip.)

The target of another test is T2, purified NRAS (Homo sapiens (assumed), UniProt P01111).
T2 construct: NRAS, purified, bought; Catalogue numbers are printed in the order HRAS/NRAS; source: bought: MedChemExpress
T2 sequence (P01111 whole entry): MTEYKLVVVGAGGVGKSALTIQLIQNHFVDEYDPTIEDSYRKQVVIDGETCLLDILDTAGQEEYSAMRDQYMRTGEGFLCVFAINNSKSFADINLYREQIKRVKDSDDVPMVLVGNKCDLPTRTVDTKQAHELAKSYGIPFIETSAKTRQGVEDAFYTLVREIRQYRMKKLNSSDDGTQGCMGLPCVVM
The test can be described thus: BLI; TKD with purified HRAS or NRAS; Octet Red96, 30 °C, PBST; which partner was on the biosensor is not clearly told. The settings on record: both partners purified.

For a further test, the target named is T3, purified HRAS (Homo sapiens (assumed), UniProt P01112).
T3 construct: HRAS, purified, bought; Catalogue numbers are printed in the order HRAS/NRAS; source: bought: MedChemExpress
T3 sequence (P01112 whole entry): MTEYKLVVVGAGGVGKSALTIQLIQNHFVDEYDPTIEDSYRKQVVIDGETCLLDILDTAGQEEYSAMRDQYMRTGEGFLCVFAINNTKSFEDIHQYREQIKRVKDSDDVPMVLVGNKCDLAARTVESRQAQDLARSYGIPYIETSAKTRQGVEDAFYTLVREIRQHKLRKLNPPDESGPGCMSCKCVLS
Described as above. The settings on record: both partners purified.

T1 sequence (P01116 whole entry, canonical isoform): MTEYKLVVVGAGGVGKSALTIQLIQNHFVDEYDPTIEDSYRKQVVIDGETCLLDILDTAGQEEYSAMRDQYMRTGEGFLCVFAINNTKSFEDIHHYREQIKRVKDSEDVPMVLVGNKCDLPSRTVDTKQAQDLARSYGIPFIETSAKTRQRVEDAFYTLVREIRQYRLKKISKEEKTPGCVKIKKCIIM

B1: 3 (VHH)
VHH: DVQLQESGGGLVQPGGSLRLNCAASGFVFSDYAMSWVRQAPGKGLEWVSAIYGGGYNPIYTDSVKGRFTISRDNAKNTLYLQIRTLKPEDTGVYYCAKEQTFGTFLNDTYYSPSYYDWGQGTQVTVSS
For the molecule B1, the binding result in the test with purified KRAS [1] was “binds”.

B2: 5 (VHH)
VHH: B1 VHH with T61A
Turning to B2, the binding result with purified KRAS [1] is given as “binds”.

B3: 6 (VHH)
VHH: DVQLQESGGGLVEPGGSLRLSCAASGSIFGLDVMGWYRQAPGKQRELVAIITRGGTANYADSGKGRFTISSDYAKKTVSLQMGSLIPEDTAVYYCSALVLGTNYWGQGTQVTVSS
Turning to B3, in the test with purified KRAS [1], the binding result is listed as “binds”.

B4: 4 (VHH)
VHH: DVQLQESGGGLVQPGGSLRLSCAASGFTFGNTGMSWVRQAPGKGLEWVSGISSGGAFSFYADSVKGRFTGSDNSAKNTVYLQMNSLQPEDTGVYYCAAGPRVALLTTPWTNPQSYHYWGQGTQVTVSS
B4: the binding result with purified KRAS [1] is “binds”.

B5: 2 (VHH)
VHH: DVQLQESGGGLVQAGGSLRLSCVAPARTVSTYPTGWFRRAPGKEREFVARINFSGGITNYADSVKGRFTISRNNTKNTVYLQMNSLKPEDTAVYYCGGGSTTWADGIPINFDYWGQGTQVTVSS
For the molecule B5, the binding result with purified KRAS [1] was “binds”.

B6: tumor-targeting KRAS degrader (TKD) (VHH)
VHH: B5 VHH with P25S, A26G, V29F, R39Q, F53L, N73D, T75A, D105G, I109T
notes: cancer cell-penetrating peptide BR2 (derived from buforin IIb); KRAS nanobody from an alpaca immunised with KRAS (1-169 aa); Fusion of BR2, KRAS nanobody and CTM; also called KDC 1; KRAS degrader candidate 1; source: for co-IP the purified protein was added to living cells
By Kd is commonly meant a measure of binding affinity in units of concentration. The low end stands for a tighter complex, the high end for a looser complex. B6 came in with a Kd with purified KRAS [2] of 6.57 nM. For the same molecule, the binding result in the test with purified NRAS and with purified HRAS was “no binding” throughout.

B7: TKDm (negative control of TKD with mutant CTM peptide) (VHH)
VHH: B5 VHH with P25S, A26G, V29F, R39Q, F53L, N73D, T75A, D105G, I109T
notes: cancer cell-penetrating peptide BR2 (derived from buforin IIb); KRAS nanobody, same as in TKD; also called TKDm-His; source: for co-IP the purified protein was added to living cells
B7 had a Kd with purified KRAS [2] of 6.6 nM.
